We go through two substances from patent publication US20210179724A1.

Assay [1] deals with adenosine A2A receptor (Homo sapiens (Human)) (UniProt P29274). Put plainly: flow cytometry, HEK293-A2a cells; Parent Singlets in the same table: 230; same picture as FIG. 16O.
For assay [2] the target is unchanged. In words: flow cytometry, HEK293-A2a cells; Parent Singlets in the same table: 230.
For assay [3] the target is unchanged. In words: cell-based or functional assay.

adenosine A2A receptor (Homo sapiens (Human)), sequence (P29274 whole entry): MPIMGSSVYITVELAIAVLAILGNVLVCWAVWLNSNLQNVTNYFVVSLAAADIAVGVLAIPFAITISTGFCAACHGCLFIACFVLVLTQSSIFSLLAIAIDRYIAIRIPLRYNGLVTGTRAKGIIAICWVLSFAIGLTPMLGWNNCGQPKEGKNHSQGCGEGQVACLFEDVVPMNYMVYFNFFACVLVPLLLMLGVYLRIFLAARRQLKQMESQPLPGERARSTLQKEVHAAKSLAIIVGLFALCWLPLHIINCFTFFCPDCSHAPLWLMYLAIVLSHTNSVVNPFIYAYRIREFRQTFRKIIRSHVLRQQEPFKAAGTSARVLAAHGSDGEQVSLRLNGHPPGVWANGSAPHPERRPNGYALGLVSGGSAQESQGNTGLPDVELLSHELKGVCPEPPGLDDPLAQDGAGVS

Consider “Human Adenosine A2aR monoclonal (MAB9497) (antibody)”, for which the Median : RL1-H (A2a Singlets) in assay [1] and in assay [2] was 7500 throughout.
Turning to R&D control antibody, in assay [3], the Absolute IC50, A2A cAMP antagonist titration (as in Example 16: titrated IgG, fixed NECA) came to 9.43; the Absolute IC50, LANCE allosteric cAMP assay, titrated IgG then fixed NECA concentration turned out to be 9.43; the Absolute IC50, cAMP allosteric A2A assay (as in Example 15: fixed IgG, NECA titration) turned out to be 0.513; the Absolute IC50 of NECA titration in cAMP assay, cells pre-incubated with fixed 100 nM IgG is 2.25.
